# Measured values taken from publication PMC6704107 (2019).
# B1: Adeno-associated virus receptor (AAVR), wild-type, PKD1-5 domains [not stated] / Adeno-associated virus 1 (AAV1) particle, wild-type capsid [adeno-associated virus 1 (AAV1)] (parent complex)
# chain 1: MEKRLGVKPNPASWILSGYYWQTSAKWLRSLYLFYTCFCFSVLWLSTDASESRCQQGKTQFGVGLRSGGENHLWLLEGTPSLQSCWAACCQDSACHVFWWLEGMCIQADCSRPQSCRAFRTHSSNSMLVFLKKFQTADDLGFLPEDDVPHLLGLGWNWASWRQSPPRAALRPAVSSSDQQSLIRKLQKRGSPSDVVTPIVTQHSKVNDSNELGGLTTSGSAEVHKAITISSPLTTDLTAELSGGPKNVSVQPEISEGLATTPSTQQVKSSEKTQIAVPQPVAPSYSYATPTPQASFQSTSAPYPVIKELVVSAGESVQITLPKNEVQLNAYVLQEPPKGETYTYDWQLITHPRDYSGEMEGKHSQILKLSKLTPGLYEFKVIVEGQNAHGEGYVNVTVKPEPRKNRPPIAIVSPQFQEISLPTTSTVIDGSQSTDDDKIVQYHWEELKGPLREEKISEDTAILKLSKLVPGNYTFSLTVVDSDGATNSTTANLTVNKAVDYPPVANAGPNQVITLPQNSITLFGNQSTDDHGITSYEWSLSPSSKGKVVEMQGVRTPTLQLSAMQEGDYTYQLTVTDTIGQQATAQVTVIVQPENNKPPQADAGPDKELTLPVDSTTLDGSKSSDDQKIISYLWEKTQGPDGVQLENANSSVATVTGLQVGTYVFTLTVKDERNLQSQSSVNVIVKEEINKPPIAKITGNVVITLPTSTAELDGSKSSDDKGIVSYLWTRDEGSPAAGEVLNHSDHHPILFLSNLVEGTYTFHLKVTDAKGESDTDRTTVEVKPDPRKNNLVEIILDINVSQLTERLKGMFIRQIGVLLGVLDSDIIVQKIQPYTEQSTKMVFFVQNEPPHQIFKGHEVAAMLKSELRKQKADFLIFRALEVNTVTCQLNCSDHGHCDSFTKRCICDPFWMENFIKVQLRDGDSNCEWSVLYVIIATFVIVVALGILSWTVICCCKRQKGKPKRKSKYKILDATDQESLELKPTSRAGIKQKGLLLSSSLMHSESELDSDDAIFTWPDREKGKLLHGQNGSVPNGQTPLKARSPREEIL
# chain 2: MAADGYLPDWLEDNLSEGIREWWDLKPGAPKPKANQQKQDDGRGLVLPGYKYLGPFNGLDKGEPVNAADAAALEHDKAYDQQLKAGDNPYLRYNHADAEFQERLQEDTSFGGNLGRAVFQAKKRVLEPLGLVEEGAKTAPGKKRPVEQSPQEPDSSSGIGKTGQQPAKKRLNFGQTGDSESVPDPQPLGEPPATPAAVGPTTMASGGGAPMADNNEGADGVGNASGNWHCDSTWLGDRVITTSTRTWALPTYNNHLYKQISSASTGASNDNHYFGYSTPWGYFDFNRFHCHFSPRDWQRLINNNWGFRPKRLNFKLFNIQVKEVTTNDGVTTIANNLTSTVQVFSDSEYQLPYVLGSAHQGCLPPFPADVFMIPQYGYLTLNNGSQAVGRSSFYCLEYFPSQMLRTGNNFTFSYTFEEVPFHSSYAHSQSLDRLMNPLIDQYLYYLNRTQNQSGSAQNKDLLFSRGSPAGMSVQPKNWLPGPCYRQQRVSKTKTDNNNSNFTWTGASKYNLNGRESIINPGTAMASHKDDEDKFFPMSGVMIFGKESAGASNTALDNVMITDEEEIKATNPVATERFGTVAVNFQSSSTDPATGDVHAMGALPGMVWQDRDVYLQGPIWAKIPHTDGHFHPSPLMGGFGLKNPPPQILIKNTPVPANPPAEFSATKFASFITQYSTGQVSVEIEWELQKENSKRWNPEVQYTSNYAKSANVDFTVDNNGLYTEPRPIGTRYLTRPL
# Variants of: B1
# Experiment: SPR (BIAcore); parent: 13.9 nM
row,Variant,Kd
1,chain 1 S425A,3.68 µM
2,chain 1 V427A,35.8 µM
3,chain 1 T426A,46.9 µM
